We go through 1 protein from patent EP2433948A1, “Use of a new class of nucleotide sugar as antibiotic or cytostatic agent” (Max-Planck-Gesellschaft zur Förderung der Wissenschaften …, priority 2010, dated 2012).

Substrate in the series: CC(=O)N[C@H]1[C@@H](OP(=O)(O)OP(=O)(O)OC[C@H]2O[C@@H](n3ccc(=O)[nH]c3=O)[C@H](O)[C@@H]2O)O[C@H](CO)[C@@H](O)[C@@H]1O
As to the kind of experiment: MurA activity/inhibition assay (phosphate release coupled to PNPase cleavage of fluorescent 7-methylguanosine). Format: biochemical, E. coli. As to conditions: other: 0.5 µM MurA, 1 mM phosphoenolpyruvate; best fit parameter of global fit; same as reported in literature; pH 7.5. The source says: • (a) MurA performs the first step of UDP-muramic acid biosynthesis. After sequential binding of UNAG and phosphoenolpyruvate, a tetrahedral intermediate is formed that yields enolpyruvyl-UNAG after cleavage of inorganic phosphate. UNAG-3P most likely mimics this tetrahedral intermediate and thereby inhibits MurA catalysis by a competitive binding mechanism. (b) Determination of the Ki of UNAG-3P for MurA. Enolpyruvyl-UNAG formation catalyzed by MurA from E. coli in presence of PEP and UNAG-3P and varying UNAG concentrations under steady state conditions. MurA enzyme kinetics were followed by coupling the reaction to phosphate dependent cleavage of fluorescent 7-methylguanosine by nucleoside phosphorylase resulting in a strong decrease of the fluorescence at 400 nm (λexc = 300 nm). The UNAG-3P concentrations for each saturation curve were 0 µM (●), 15 µM (□) and 30 µM (Δ). A Lineweaver-Burk plot is shown as inset.
The enolpyruvyl activity of E. coli MurA was monitored by coupling phosphate release to cleavage of fluorescent 7-methylguanosine (Sigma) by bacterial purine-nucleoside phosphorylase (PNPase) (Sigma). […] The reactions were monitored by the decrease in fluorescence at 400 nm with excitation set to 300 nm in a FluoroMax-3 spectrofluorometer (HORIBA Jobin Yvon) with excitation and emission bandwidths of 5 nm. […]

For orientation: Km means the substrate concentration at which the rate is half of its maximum.

B1: E. coli MurA (Escherichia coli K-12) (protein)
chain: MDKFRVQGPTKLQGEVTISGAKNAALPILFAALLAEEPVEIQNVPKLKDVDTSMKLLSQLGAKVERNGSVHIDARDVNVFCAPYDLVKTMRASIWALGPLVARFGQGQVSLPGGCTIGARPVDLHISGLEQLGATIKLEEGYVKASVDGRLKGAHIVMDKVSVGATVTIMCAATLAEGTTIIENAAREPEIVDTANFLITLGAKISGQGTDRIVIEGVERLGGGVYRVLPDRIETGTFLVAAAISRGKIICRNAQPDTLDAVLAKLRDAGADIEVGEDWISLDMHGKRPKAVNVRTAPHPAFPTDMQAQFTLLNLVAEGTGFITETVFENRFMHVPELSRMGAHAEIESNTVICHGVEKLSGAQVMATDLRASASLVLAGCIAEGTTVVDRIYHIDRGYERIEDKLRALGANIERVKGE
In the case of B1, the Km was 15 µM.
